Laboratory results as given in the supplement of paper PMC7877785.
± gives the uncertainty stated by the source.

Assay: self-splicing fitness, log relative to wild type (ln ratio); higher = more splicing; Tetrahymena group I intron in knt gene, E. coli kanamycin selection, DiMSum; sequences stand for … in CUCUCU…GGAGGGAAAAGUUAUCAGGCAUGCACCUGGUAGCUAGUCUUUAAACCAAUAGAUUGCAUCGGUUUAAAAGGCAAGACCGUCAAAUUGCGGGAAAGGGGUCAACAGCCGUUCAGUACCAAGUCUCAGGGGAAACUUUGAGAUGGCCUUGCAAAGGGUAUGGUAAUAAGCUGACGGACAUGGUCCUAACCACGCAGCCAAGUCCUAAGUCAACAGAUCUUCUGUUGAUAUGGAUGCAGUUCACAGACUAAAUGUCGGUCGGGGAAGAUGUAUUCUUCUCAUAAGAUAUAGUCGGACCUCUCCUUAAUGGGAGCUAGCGGAUGAAGUGAUGCAACACUGGAGCCGCUGGGAACUAAUUUGUAUGCGAAAGUAUAUUGAUUAGUUUUGGAGUACUCGUGGUCG
Method in brief: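 Six replicate transformations of E. coli BL21(DE3) with a pET-22b(+) library were grown overnight at 37°C or 30°C. The library randomised all eight P1ex-region intron nucleotides, the intron lying in the knt kanamycin-resistance gene, and plates were LB agar with or without 25 μg/mL kanamycin plus 100 μg/mL carbenicillin, 50 μM IPTG and 0.2% rhamnose. Pooled colonies were amplicon-sequenced on an Illumina HiSeq 2500, and fitness is the DiMSum error-weighted combination of wild-type-normalised replicate fold changes, kanamycin versus none.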

Row | Sequence | self-splicing fitness (ln) (30 °C) | self-splicing fitness (ln) (37 °C)
1 | UUAGAGCAAUAUUACGAAAG | -2.9 ± 0.4 | -0.494 ± 0.35
2 | UUAGAGCAAUAUUACGAACA | -2.48 ± 0.19 | -0.84 ± 0.19
3 | UUAGAGCAAUAUUACGACGA | 0.428 ± 0.12 | 0.651 ± 0.15
4 | UUAGAGCAAUAUUACGAGGG | – | -2.64 ± 0.44
5 | UUAGAGCAAUAUUACGAUCA | -1.52 ± 0.16 | -0.808 ± 0.17
6 | UUAGAGCAAUAUUACGAUCU | -2.45 ± 0.24 | -3.11 ± 0.3
7 | UUAGAGCAAUAUUACGCAAU | -2.21 ± 0.2 | -1.52 ± 0.41
8 | UUAGAGCAAUAUUACGCCGA | -0.286 ± 0.14 | 0.255 ± 0.18
9 | UUAGAGCAAUAUUACGCCUG | -0.457 ± 0.11 | 0.235 ± 0.18
10 | UUAGAGCAAUAUUACGCGAG | -0.443 ± 0.084 | -0.0681 ± 0.094
11 | UUAGAGCAAUAUUACGGACA | -2.08 ± 0.13 | -0.655 ± 0.16
12 | UUAGAGCAAUAUUACGGAUC | – | -1.56 ± 0.4
13 | UUAGAGCAAUAUUACGGUAA | -1.34 ± 0.086 | -0.0767 ± 0.11
14 | UUAGAGCAAUAUUACGGUAG | -1.27 ± 0.12 | -0.297 ± 0.14
15 | UUAGAGCAAUAUUACGGUGG | -1.95 ± 0.12 | -0.679 ± 0.13
16 | UUAGAGCAAUAUUACGUACC | – | -0.711 ± 0.48
17 | UUAGAGCAAUAUUACGUGAG | -1.88 ± 0.083 | -0.875 ± 0.13
18 | UUAUAGCAAUAUUACGACAU | -2.471 ± 0.021 | -1.55 ± 0.036
19 | UUAUAGCAAUAUUACGACUG | -1.05 ± 0.14 | -0.662 ± 0.15
20 | UUAUAGCAAUAUUACGAUCC | – | -2.87 ± 0.26
21 | UUAUAGCAAUAUUACGAUUG | -1.01 ± 0.13 | -0.505 ± 0.2
22 | UUAUAGCAAUAUUACGCGUG | -0.968 ± 0.11 | -0.618 ± 0.13
23 | UUAUAGCAAUAUUACGCUAC | – | -1.33 ± 0.45
24 | UUAUAGCAAUAUUACGCUCC | -2.11 ± 0.24 | 0.501 ± 0.45
25 | UUAUAGCAAUAUUACGGCUU | -1.99 ± 0.17 | -0.583 ± 0.18

Row | Sequence | self-splicing fitness (ln) (30 °C) | self-splicing fitness (ln) (37 °C)
26 | UUAUAGCAAUAUUACGGUGU | -3.63 ± 0.31 | -2.23 ± 0.3
27 | UUAUAGCAAUAUUACGUGCC | -2.08 ± 0.27 | -0.756 ± 0.35
28 | UUAUAGCAAUAUUACGUUAA | -2.07 ± 0.29 | -1.61 ± 0.22
29 | UUAUAGCAAUAUUACGUUAU | – | -2.31 ± 0.34
30 | UUAUAGCAAUAUUACGUUCG | -0.942 ± 0.091 | 0.154 ± 0.14
31 | UUAUAGCAAUAUUACGUUCU | -2.18 ± 0.15 | -1.11 ± 0.16
32 | UUCAAGCAAUAUUACGAAUC | -4.05 ± 0.3 | -2.75 ± 0.32
33 | UUCAAGCAAUAUUACGAAUU | -3.21 ± 0.24 | -1.69 ± 0.27
34 | UUCAAGCAAUAUUACGACAU | -1.614 ± 0.014 | -0.69 ± 0.033
35 | UUCAAGCAAUAUUACGAGUA | -0.831 ± 0.083 | -0.136 ± 0.089
36 | UUCAAGCAAUAUUACGAGUC | -3.3 ± 0.31 | -1.93 ± 0.26
37 | UUCAAGCAAUAUUACGAUAA | -0.317 ± 0.048 | 0.226 ± 0.059
38 | UUCAAGCAAUAUUACGAUAU | -2.7 ± 0.18 | -1.42 ± 0.18
39 | UUCAAGCAAUAUUACGCACA | -0.531 ± 0.089 | 0.153 ± 0.13
40 | UUCAAGCAAUAUUACGCAUU | -3.98 ± 0.26 | -1.27 ± 0.13
41 | UUCAAGCAAUAUUACGCCGA | -0.5 ± 0.18 | -0.423 ± 0.23
42 | UUCAAGCAAUAUUACGCGUA | -1.17 ± 0.14 | -0.0781 ± 0.1
43 | UUCAAGCAAUAUUACGCGUG | -3.38 ± 0.17 | -2.13 ± 0.17
44 | UUCAAGCAAUAUUACGGAGA | -1.55 ± 0.18 | -1.32 ± 0.19
45 | UUCAAGCAAUAUUACGGAGC | -2.66 ± 0.28 | -1.8 ± 0.23
46 | UUCAAGCAAUAUUACGGCGU | -1.61 ± 0.094 | -0.465 ± 0.12
47 | UUCAAGCAAUAUUACGUCAA | -0.772 ± 0.092 | -0.645 ± 0.1
48 | UUCAAGCAAUAUUACGUCCA | -1.12 ± 0.11 | -0.803 ± 0.098
49 | UUCAAGCAAUAUUACGUGAU | -1.8 ± 0.096 | -0.468 ± 0.11
